Assay results from patent US20220402980A1 (OSPEDALE SAN RAFFAELE S R L, published 2022).
Read-outs that look alike come from different tables or passages of the source. *1 amine or outer side, *2 acyl side, *3 side chain or, on linkers, in order; H or OH if unused. Bridges are numbered along the chain shown (N, C = ends). Where no end group is shown, it is not given here. [ ]: non-standard residue; d: D form. The star is where a group is joined. maleimide‑NOTA = 1,4,7-triazacyclononane-1,4-bis-acetic acid-7-maleimidoethylacetamide; Biotin = O=C1N[C@H]2[C@H](CS[C@H]2CCCCC(=O)*)N1; Lys(N3) = [N-]=[N+]=NCCCC[C@H](N)C(=O)O; βAsp = O=C(O)[C@H](CC(=O)[*:2])N[*:1]; hSer(lactone) = O=C1OCC[C@@H]1N*; Pra = C#CC[C@H](N)C(=O)O

What was measured:
[1] = biological target: T1, wild-type human integrin αvβ3 (octyl β-D-glucopyranoside preparation) (human, UniProt P06756 31-1048; P05106 27-788); assay: competitive binding assay on αvβ3-coated plates, isoDGR/STV-HRP probe
T1 construct: From Immunological Sciences

[2] = biological target: T2, wild-type human integrin α5β1 (octyl β-D-glucopyranoside preparation) (human, UniProt P08648 42-1049; P05556 21-798); assay: competitive binding assay on α5β1-coated plates, isoDGR/STV-HRP probe
T2 construct: From Immunological Sciences; also called a5p1; asp1

[3] = biological target: T3, wild-type human integrin αvβ5 (octyl β-D-glucopyranoside preparation) (human, UniProt P06756 31-1048; P18084 24-799); assay: competitive binding assay on αvβ5-coated plates, isoDGR/STV-HRP probe
T3 construct: From Immunological Sciences

[4] = biological target: T4, αvβ8 integrin (purified, coated on microtiter plates) (UniProt P06756 31-992; P26012 43-684); assay: competitive binding assay on αvβ8-coated plates, isoDGR/STV-HRP probe
T4 construct: The Reagents section names no source for αvβ8; also called avs8

[5] = biological target: T5, recombinant human αvβ6 extracellular domain (R&D Systems) (human, UniProt P06756 31-992; P18564 22-709); assay: competitive binding assay on αvβ6-coated plates, isoDGR/STV-HRP probe
T5 construct: extracellular domain; Bought; also called recombinant extracellular αvβ6; purified αvβ6

[6] = biological target: T5, recombinant human αvβ6 extracellular …; assay: as above; remark: listed apart in the source
[7] = biological target: T5, recombinant human αvβ6 extracellular …; assay: direct binding to integrin-coated microtiter plates, one site specific binding fit
[8] = biological target: T3, wild-type human integrin αvβ5 (octyl …); assay: as above
[9] = biological target: T2, wild-type human integrin α5β1 (octyl …); assay: as above
[10] = biological target: T1, wild-type human integrin αvβ3 (octyl …); assay: as above
[11] = biological target: T4, αvβ8 integrin (purified, coated on …); assay: as above
[12] = biological target: T5, recombinant human αvβ6 extracellular …; assay: STD NMR, 0.5 mM peptide with 4 µM αvβ6
bovine serum albumin = biological target: T6, bovine serum albumin (bovine, UniProt P02769 25-607); assay: 2D-STD-1H-15N-HSQC NMR, negative control
T6 construct: Negative control in the STD NMR experiments; also called BSA

[13] = biological target: T5, recombinant human αvβ6 extracellular …; assay: direct binding to integrin-coated plates, near-infrared fluorescence
[14] = biological target: T4, αvβ8 integrin (purified, coated on …); assay: as above
[15] = biological target: T5, recombinant human αvβ6 extracellular …; assay: competitive αvβ6 binding assay, isoDGR-HRP probe

T1 sequence (P06756 31-1048, chain 1 of 2): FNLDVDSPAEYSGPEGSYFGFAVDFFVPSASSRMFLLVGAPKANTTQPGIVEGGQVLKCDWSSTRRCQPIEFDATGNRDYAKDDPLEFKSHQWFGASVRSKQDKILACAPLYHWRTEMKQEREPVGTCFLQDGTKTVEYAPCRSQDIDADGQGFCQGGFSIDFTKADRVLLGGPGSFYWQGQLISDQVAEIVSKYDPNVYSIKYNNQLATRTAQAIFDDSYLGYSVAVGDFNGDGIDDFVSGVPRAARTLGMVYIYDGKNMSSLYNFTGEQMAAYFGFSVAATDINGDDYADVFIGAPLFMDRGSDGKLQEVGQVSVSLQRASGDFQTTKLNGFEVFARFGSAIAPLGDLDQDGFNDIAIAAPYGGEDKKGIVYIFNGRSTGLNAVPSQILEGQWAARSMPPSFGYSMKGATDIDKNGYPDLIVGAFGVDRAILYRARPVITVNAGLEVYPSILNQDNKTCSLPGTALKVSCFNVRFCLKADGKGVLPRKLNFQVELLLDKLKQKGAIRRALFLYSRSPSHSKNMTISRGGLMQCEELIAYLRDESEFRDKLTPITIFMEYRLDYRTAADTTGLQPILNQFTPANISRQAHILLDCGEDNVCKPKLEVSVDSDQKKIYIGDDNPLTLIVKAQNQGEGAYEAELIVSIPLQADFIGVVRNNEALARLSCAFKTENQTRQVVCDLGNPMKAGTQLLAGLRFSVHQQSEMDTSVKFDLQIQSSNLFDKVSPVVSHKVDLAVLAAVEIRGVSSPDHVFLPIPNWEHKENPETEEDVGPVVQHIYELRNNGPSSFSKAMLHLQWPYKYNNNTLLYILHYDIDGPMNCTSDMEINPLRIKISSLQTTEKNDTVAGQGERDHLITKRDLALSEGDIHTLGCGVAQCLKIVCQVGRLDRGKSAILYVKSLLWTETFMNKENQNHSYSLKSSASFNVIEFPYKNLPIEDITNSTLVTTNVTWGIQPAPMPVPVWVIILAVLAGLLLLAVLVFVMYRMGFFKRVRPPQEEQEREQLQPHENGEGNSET
T1 sequence (P05106 27-788, chain 2 of 2): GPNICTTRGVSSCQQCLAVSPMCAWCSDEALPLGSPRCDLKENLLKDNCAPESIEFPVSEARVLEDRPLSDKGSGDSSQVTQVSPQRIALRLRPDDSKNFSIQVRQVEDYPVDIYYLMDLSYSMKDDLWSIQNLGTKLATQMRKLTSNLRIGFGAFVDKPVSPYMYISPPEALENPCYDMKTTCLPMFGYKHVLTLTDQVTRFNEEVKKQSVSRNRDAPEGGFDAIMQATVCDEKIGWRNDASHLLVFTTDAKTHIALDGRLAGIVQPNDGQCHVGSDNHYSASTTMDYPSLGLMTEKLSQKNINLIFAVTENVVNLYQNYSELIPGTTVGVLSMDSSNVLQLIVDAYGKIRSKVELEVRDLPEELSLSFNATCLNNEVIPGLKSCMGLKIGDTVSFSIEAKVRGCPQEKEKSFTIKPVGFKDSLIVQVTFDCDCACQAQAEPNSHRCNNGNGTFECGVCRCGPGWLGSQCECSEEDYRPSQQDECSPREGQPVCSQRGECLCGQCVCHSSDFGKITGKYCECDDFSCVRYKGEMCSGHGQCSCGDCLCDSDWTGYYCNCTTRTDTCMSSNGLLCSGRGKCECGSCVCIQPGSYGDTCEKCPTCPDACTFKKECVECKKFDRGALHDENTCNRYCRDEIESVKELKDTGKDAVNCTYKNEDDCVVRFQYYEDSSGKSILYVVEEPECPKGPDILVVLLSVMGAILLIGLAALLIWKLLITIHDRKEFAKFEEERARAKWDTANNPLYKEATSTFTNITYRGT
T3 sequence (P06756 31-1048, chain 1 of 2): as the sequence (P06756 31-1048, chain 1 of 2) above
T3 sequence (P18084 24-799, chain 2 of 2): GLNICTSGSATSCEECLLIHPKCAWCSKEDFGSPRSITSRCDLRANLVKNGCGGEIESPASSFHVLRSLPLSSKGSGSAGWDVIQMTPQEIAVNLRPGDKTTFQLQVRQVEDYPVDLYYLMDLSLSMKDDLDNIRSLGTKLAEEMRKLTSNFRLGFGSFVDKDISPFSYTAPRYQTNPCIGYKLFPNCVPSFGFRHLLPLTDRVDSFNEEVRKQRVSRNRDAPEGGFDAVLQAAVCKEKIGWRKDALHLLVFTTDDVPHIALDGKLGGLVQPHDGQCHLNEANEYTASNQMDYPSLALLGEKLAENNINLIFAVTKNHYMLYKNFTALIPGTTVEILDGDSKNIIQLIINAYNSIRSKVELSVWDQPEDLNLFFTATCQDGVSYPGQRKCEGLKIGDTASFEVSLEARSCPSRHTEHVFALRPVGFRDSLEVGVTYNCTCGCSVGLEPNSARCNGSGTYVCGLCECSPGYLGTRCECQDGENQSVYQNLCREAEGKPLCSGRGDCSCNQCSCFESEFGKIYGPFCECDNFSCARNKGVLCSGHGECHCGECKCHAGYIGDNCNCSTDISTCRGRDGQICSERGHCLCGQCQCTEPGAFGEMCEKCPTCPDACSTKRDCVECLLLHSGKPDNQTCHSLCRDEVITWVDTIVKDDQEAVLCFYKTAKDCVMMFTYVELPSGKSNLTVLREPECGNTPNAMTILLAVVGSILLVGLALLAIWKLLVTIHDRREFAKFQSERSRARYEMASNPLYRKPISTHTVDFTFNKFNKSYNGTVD
T2 sequence (P08648 42-1049, chain 1 of 2): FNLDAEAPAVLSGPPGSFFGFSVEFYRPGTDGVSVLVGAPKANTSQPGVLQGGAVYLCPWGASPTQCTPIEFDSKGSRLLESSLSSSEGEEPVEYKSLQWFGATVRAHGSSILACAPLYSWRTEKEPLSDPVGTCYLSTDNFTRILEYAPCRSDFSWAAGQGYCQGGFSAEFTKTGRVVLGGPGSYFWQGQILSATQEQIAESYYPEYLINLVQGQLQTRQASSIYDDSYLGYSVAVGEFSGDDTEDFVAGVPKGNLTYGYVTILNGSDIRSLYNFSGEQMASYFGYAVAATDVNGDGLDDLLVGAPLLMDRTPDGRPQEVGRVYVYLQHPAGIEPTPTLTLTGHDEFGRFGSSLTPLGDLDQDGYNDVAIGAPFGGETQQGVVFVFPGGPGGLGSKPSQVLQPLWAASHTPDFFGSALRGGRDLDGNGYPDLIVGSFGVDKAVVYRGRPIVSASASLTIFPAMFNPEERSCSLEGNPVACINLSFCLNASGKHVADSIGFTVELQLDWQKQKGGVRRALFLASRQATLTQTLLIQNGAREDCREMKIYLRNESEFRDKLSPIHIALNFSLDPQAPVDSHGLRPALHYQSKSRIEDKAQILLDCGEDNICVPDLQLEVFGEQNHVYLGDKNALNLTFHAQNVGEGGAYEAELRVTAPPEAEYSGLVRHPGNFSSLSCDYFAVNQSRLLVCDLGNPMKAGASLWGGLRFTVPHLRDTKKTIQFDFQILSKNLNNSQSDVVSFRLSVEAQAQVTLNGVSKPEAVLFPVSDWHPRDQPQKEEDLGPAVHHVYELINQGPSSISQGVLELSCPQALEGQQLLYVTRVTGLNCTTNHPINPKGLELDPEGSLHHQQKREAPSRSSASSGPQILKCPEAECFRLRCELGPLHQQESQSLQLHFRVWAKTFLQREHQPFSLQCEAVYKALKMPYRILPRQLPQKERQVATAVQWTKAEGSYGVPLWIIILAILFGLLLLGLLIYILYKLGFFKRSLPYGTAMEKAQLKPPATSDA
T2 sequence (P05556 21-798, chain 2 of 2): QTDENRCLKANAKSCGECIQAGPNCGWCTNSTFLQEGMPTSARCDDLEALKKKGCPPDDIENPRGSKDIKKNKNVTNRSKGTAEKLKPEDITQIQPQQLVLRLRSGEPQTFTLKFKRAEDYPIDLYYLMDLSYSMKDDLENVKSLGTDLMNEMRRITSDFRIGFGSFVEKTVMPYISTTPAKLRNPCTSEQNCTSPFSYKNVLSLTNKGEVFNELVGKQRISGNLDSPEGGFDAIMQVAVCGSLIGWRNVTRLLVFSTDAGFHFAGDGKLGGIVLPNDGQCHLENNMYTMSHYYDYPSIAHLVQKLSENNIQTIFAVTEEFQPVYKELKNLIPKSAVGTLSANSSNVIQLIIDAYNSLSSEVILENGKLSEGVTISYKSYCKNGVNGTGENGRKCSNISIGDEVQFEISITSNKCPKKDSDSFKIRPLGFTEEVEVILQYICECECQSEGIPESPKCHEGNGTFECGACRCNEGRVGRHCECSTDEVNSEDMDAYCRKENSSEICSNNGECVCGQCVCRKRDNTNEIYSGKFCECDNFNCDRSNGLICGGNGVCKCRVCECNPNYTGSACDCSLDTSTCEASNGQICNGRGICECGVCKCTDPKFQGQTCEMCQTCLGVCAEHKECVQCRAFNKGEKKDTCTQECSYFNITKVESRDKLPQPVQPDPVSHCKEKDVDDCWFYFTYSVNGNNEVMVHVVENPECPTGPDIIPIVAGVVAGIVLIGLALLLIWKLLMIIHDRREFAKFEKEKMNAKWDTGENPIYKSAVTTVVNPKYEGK
T6 sequence (P02769 25-607 limits assumed): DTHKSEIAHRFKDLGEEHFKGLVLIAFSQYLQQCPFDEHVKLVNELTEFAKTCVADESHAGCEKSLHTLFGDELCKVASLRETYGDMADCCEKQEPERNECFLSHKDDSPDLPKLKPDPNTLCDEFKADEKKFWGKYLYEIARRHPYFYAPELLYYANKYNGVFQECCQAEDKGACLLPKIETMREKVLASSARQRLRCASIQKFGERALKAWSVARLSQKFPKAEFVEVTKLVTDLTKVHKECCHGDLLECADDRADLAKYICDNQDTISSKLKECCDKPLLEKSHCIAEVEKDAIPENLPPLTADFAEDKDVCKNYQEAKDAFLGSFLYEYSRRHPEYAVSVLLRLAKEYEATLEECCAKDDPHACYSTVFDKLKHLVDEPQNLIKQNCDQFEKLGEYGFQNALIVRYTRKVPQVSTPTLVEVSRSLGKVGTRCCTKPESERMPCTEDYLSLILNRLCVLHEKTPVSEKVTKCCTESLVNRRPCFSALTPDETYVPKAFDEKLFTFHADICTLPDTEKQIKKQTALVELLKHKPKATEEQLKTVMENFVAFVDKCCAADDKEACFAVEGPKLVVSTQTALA

B1: peptide 1 (CgA-derived peptide, residues 39-63), synthetic (peptide)
peptide: FETLRGDERILSILRHQNLLKELQD
notes: Synthetic peptide bought from Biomatik; no terminal modification is stated for it; also called compound 1
In the case of B1, the Ki [1] is reported as 2190 nM, the Ki [2] is reported as 9210 nM and the Ki [3] is reported as 3600 nM. It also gave a Ki [4] of 7660 nM and a Ki [5] of 15.5 nM.

B2: peptide 3 (peptide)
peptide: FETLRGDERILSILR-NH2
notes: Made by Fmoc-SPPS on a Rink-amide resin; also called compound 3
For B2, the Ki [1] was 1250 nM, the Ki [2] was 10100 nM and the Ki [3] was 2040 nM. For the same binder, the Ki [4] was 31200 nM and the Ki [5] was 277 nM.

B3: peptide 5a (peptide)
peptide: CFETLRGDLRILSILR[Pra]QNL[Lys(N3)]KELQD-NH2
modifications: triazole 17-21
notes: also called CgA38-63-derived peptide
B3 showed a Ki [6] of 1.5 nM.

B4: isoDGR/STV-HRP (acetyl-CisoDGRCGVRSSSRTPSDKY-bio in complex with a streptavidin-peroxidase conjugate) (peptide)
chain: Ac-C[βAsp]GRCGVRSSSRTPSDK(Biotin)Y
modifications: also: in complex with streptavidin-peroxidase conjugate
With B4 the Kd [7] was 1.4 nM, the Kd [8] was 1.7 nM and the Kd [9] was 1.3 nM. The Kd [10] was 1.3 nM and the Kd [11] was 1.6 nM.

B5: recombinant 13C/15N peptide 1 (peptide)
peptide: FETLRGDERILSILRHQNLLKELQD-{hSer(lactone)}
modifications: also: 13C/15N isotope labelled
notes: Used in the 2D-STD NMR experiments; also called recombinant peptide 1; 15N labelled peptide 1
B5: binds [12]; no binding (bovine serum albumin).

B6: 2a-IRDye (peptide 2a coupled via Cys to maleimide-IRDye 800CW) (peptide)
peptide: C(maleimide‑IRDye 800CW)FETLRGEERILSILRHQNLLKELQD
notes: RGE control conjugate
B6: no binding (tested: range 0.01-100 nM) [13]; no binding (tested: range 0.01-100 nM) [14].

B7: NOTA-2a (peptide 2a coupled to maleimide-NOTA) (peptide)
peptide: C(maleimide‑NOTA)FETLRGEERILSILRHQNLLKELQD
notes: Negative control conjugate
B7: no binding [15].
